The values below come from the supplement of paper PMC7125110.

As usually defined, the kcat is the number of substrate molecules converted per active site and unit of time at saturation. As a reminder, the KM is the substrate concentration at which the rate is half of its maximum.

To fix the notation:
B1: glmS ribozyme (parent)
chain: AUAAAAGCGCCAGAACUACAGAAAUGUAGUUGACGAGGAGGAGGUUUAUCGAAUUUUCGGCGGAUGCCUCCAAA

Conditions in all cases: with glucosamine-6-phosphate
Data set [1] covers variants of B1. The data set can be described thus: kcat; higher = faster cleavage; RNA array. Summed up: (§1)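 Weighted Michaelis–Menten fits across concentrations supplied kcat and KM, based on kobs from one- or two-exponential decay fits to normalised per-tile medians. The data came from barcoded ribozyme variants transcribed in situ by E. coli RNA polymerase on sequenced MiSeq chips and tracked at 37 °C by a hybridised Cy3 probe. Glucosamine-6-phosphate (40 μM to 10 mM) in HEPES/KCl/Mg(OAc)2 buffer was flowed in.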

The variants in data set [2] derive from B1. The data set can be described thus: KM; higher = weaker cofactor use; RNA array. Summed up:
as §1

The variants in data set [3] derive from B1. The data set can be described thus: self-cleavage kobs at 40 uM GlcN6P; higher = faster cleavage; RNA array. Summed up:
as §1

Data set [4] covers variants of B1. The experiment in a line: self-cleavage kobs at 160 uM GlcN6P; higher = faster cleavage; RNA array. In outline: as §1
Variants of B1 are the subject of data set [5]. The data set can be described thus: self-cleavage kobs at 640 uM GlcN6P; higher = faster cleavage; RNA array. In outline:
as §1

Variants of B1 are the subject of data set [6]. The experiment in a line: self-cleavage kobs at 10000 uM GlcN6P; higher = faster cleavage; RNA array. Summed up: as §1
In data set [7] the parent is B1. The data set can be described thus: self-cleavage kobs at 2500 uM GlcN6P; higher = faster cleavage; RNA array. In outline:
as §1

± gives the standard error. For some of these results: Fewer inactive variants are shown than the library holds. Some results are limits rather than exact numbers.

Turning to U54C C67A, in the data set with glucosamine-6-phosphate [1], the kcat amounted to 0.00598 ± 0.0014 s⁻¹. For the same variant, the Michaelis-Menten constant (KM) in the data set with glucosamine-6-phosphate [2] amounted to 1.58 ± 0.59 mM. Also, in the data set with glucosamine-6-phosphate [3], the “self-cleavage kobs at 40 uM GlcN6P” value is 0.000198 ± 3.2e-05 s⁻¹. Moreover, the “self-cleavage kobs at 160 uM GlcN6P” value with glucosamine-6-phosphate [4] stood at 0.000315 ± 0.00012 s⁻¹. In addition, the “self-cleavage kobs at 640 uM GlcN6P” value with glucosamine-6-phosphate [5] stood at 0.00199 ± 0.00058 s⁻¹. Besides, in the data set with glucosamine-6-phosphate [6], the “self-cleavage kobs at 10000 uM GlcN6P” value stood at 0.00521 ± 0.00071 s⁻¹.
Consider A39C C58G, for which the kcat with glucosamine-6-phosphate [1] was determined as 1.1e-05 ± 2.2e-06 s⁻¹.
On to U46C C68U, for which the catalytic constant (kcat) in the data set with glucosamine-6-phosphate [1] was 0.000934 ± 0.0002 s⁻¹. Besides, in the data set with glucosamine-6-phosphate [2], the KM turned out to be 1.48 ± 0.58 mM. Besides, in the data set with glucosamine-6-phosphate [3], the “self-cleavage kobs at 40 uM GlcN6P” value came to 2.43e-05 ± 7.6e-06 s⁻¹. Further, the “self-cleavage kobs at 160 uM GlcN6P” value with glucosamine-6-phosphate [4] was 7.49e-05 ± 1.3e-05 s⁻¹. In addition, in the data set with glucosamine-6-phosphate [5], the “self-cleavage kobs at 640 uM GlcN6P” value was 0.000387 ± 6e-05 s⁻¹. In the data set with glucosamine-6-phosphate [7], the “self-cleavage kobs at 2500 uM GlcN6P” value stood at 0.000933 ± 0.00014 s⁻¹. For the same variant, the “self-cleavage kobs at 10000 uM GlcN6P” value with glucosamine-6-phosphate [6] was 0.000743 ± 7.7e-05 s⁻¹.
U30G U46G: in the data set with glucosamine-6-phosphate [1], the kcat amounted to 0.00267 ± 0.0006 s⁻¹. In addition, the Michaelis-Menten constant (KM) with glucosamine-6-phosphate [2] turned out to be 3.99 ± 1.2 mM. Also, in the data set with glucosamine-6-phosphate [3], the “self-cleavage kobs at 40 uM GlcN6P” value is 4.16e-05 ± 1.4e-05 s⁻¹. In addition, in the data set with glucosamine-6-phosphate [4], the “self-cleavage kobs at 160 uM GlcN6P” value is 0.000105 ± 2.3e-05 s⁻¹. Also, the “self-cleavage kobs at 640 uM GlcN6P” value in the data set with glucosamine-6-phosphate [5] is 0.000333 ± 4.9e-05 s⁻¹. Besides, the “self-cleavage kobs at 2500 uM GlcN6P” value in the data set with glucosamine-6-phosphate [7] worked out at 0.00112 ± 0.00015 s⁻¹. The “self-cleavage kobs at 10000 uM GlcN6P” value with glucosamine-6-phosphate [6] is 0.00181 ± 0.00038 s⁻¹.
In the case of A64U C67U, in the data set with glucosamine-6-phosphate [1], the kcat came out at 5.93e-05 ± 6.4e-06 s⁻¹. Also, the “self-cleavage kobs at 2500 uM GlcN6P” value in the data set with glucosamine-6-phosphate [7] was determined as 5.62e-05 ± 8.7e-06 s⁻¹. In addition, the “self-cleavage kobs at 10000 uM GlcN6P” value with glucosamine-6-phosphate [6] came out at 5.31e-05 ± 6.3e-06 s⁻¹.
Turning to U31G G60A, the kcat with glucosamine-6-phosphate [1] was determined as 1.46e-05 ± 6.5e-06 s⁻¹.
On the same count and under the same terms, next, G37U C70U C71U: 1.13e-05 ± 3.2e-06 s⁻¹.
Consider G13C U31C G32U U65G C67U, for which, in the data set with glucosamine-6-phosphate [1], the catalytic constant (kcat) is 6.88e-05 ± 4.5e-06 s⁻¹. The KM with glucosamine-6-phosphate [2] was found to be 3.04 ± 0.64 mM. Moreover, the “self-cleavage kobs at 10000 uM GlcN6P” value with glucosamine-6-phosphate [6] was found to be 5.26e-05 ± 1.4e-05 s⁻¹.
As to G35U G37A G60U, in the data set with glucosamine-6-phosphate [1], the kcat was under 1e-05 s⁻¹. Moreover, the “self-cleavage kobs at 2500 uM GlcN6P” value with glucosamine-6-phosphate [7] was under 1e-05 s⁻¹.
With C50A C71A, in the data set with glucosamine-6-phosphate [1], the kcat was 1.53e-05 ± 3.9e-06 s⁻¹.
Turning to U30G G66C, in the data set with glucosamine-6-phosphate [1], the turnover number (kcat) stood at 0.000132 ± 1.5e-05 s⁻¹. Besides, the Michaelis-Menten constant (KM) in the data set with glucosamine-6-phosphate [2] came to 1.62 ± 0.6 mM. Further, the “self-cleavage kobs at 2500 uM GlcN6P” value in the data set with glucosamine-6-phosphate [7] turned out to be 9.1e-05 ± 1.7e-05 s⁻¹. For the same variant, the “self-cleavage kobs at 10000 uM GlcN6P” value with glucosamine-6-phosphate [6] came out at 0.00011 ± 1.6e-05 s⁻¹.
For A52G C71U, the catalytic constant (kcat) with glucosamine-6-phosphate [1] is 0.00186 ± 0.00014 s⁻¹. Moreover, in the data set with glucosamine-6-phosphate [2], the KM was determined as 3.44 ± 0.38 mM. The “self-cleavage kobs at 40 uM GlcN6P” value with glucosamine-6-phosphate [3] is 2.74e-05 ± 6e-06 s⁻¹. The “self-cleavage kobs at 160 uM GlcN6P” value with glucosamine-6-phosphate [4] came to 7.83e-05 ± 8.6e-06 s⁻¹. The “self-cleavage kobs at 640 uM GlcN6P” value with glucosamine-6-phosphate [5] was 0.000293 ± 2.7e-05 s⁻¹. Moreover, the “self-cleavage kobs at 2500 uM GlcN6P” value with glucosamine-6-phosphate [7] worked out at 0.00078 ± 0.00015 s⁻¹. Besides, the “self-cleavage kobs at 10000 uM GlcN6P” value with glucosamine-6-phosphate [6] worked out at 0.00138 ± 0.00012 s⁻¹.
G32U G40A: the kcat with glucosamine-6-phosphate [1] worked out at 0.000344 ± 5e-05 s⁻¹. In the data set with glucosamine-6-phosphate [2], the KM stood at 3.45 ± 0.95 mM. Besides, the “self-cleavage kobs at 640 uM GlcN6P” value with glucosamine-6-phosphate [5] was determined as 6.33e-05 ± 6.7e-06 s⁻¹. Further, the “self-cleavage kobs at 2500 uM GlcN6P” value in the data set with glucosamine-6-phosphate [7] came to 0.000131 ± 1e-05 s⁻¹. In addition, the “self-cleavage kobs at 10000 uM GlcN6P” value with glucosamine-6-phosphate [6] stood at 0.000267 ± 1.9e-05 s⁻¹.
Regarding A6C U30A, the kcat with glucosamine-6-phosphate [1] is under 1e-05 s⁻¹. The “self-cleavage kobs at 40 uM GlcN6P” value with glucosamine-6-phosphate [3] was under 1e-05 s⁻¹. Also, the “self-cleavage kobs at 160 uM GlcN6P” value with glucosamine-6-phosphate [4] was under 1e-05 s⁻¹.
In the case of C10G G62C, the turnover number (kcat) in the data set with glucosamine-6-phosphate [1] is under 1e-05 s⁻¹.
As for C34A G51U, the kcat with glucosamine-6-phosphate [1] worked out at 0.000727 ± 0.00012 s⁻¹. The KM in the data set with glucosamine-6-phosphate [2] was 3.28 ± 1.2 mM. Further, the “self-cleavage kobs at 640 uM GlcN6P” value with glucosamine-6-phosphate [5] is 0.000141 ± 3e-05 s⁻¹. Besides, in the data set with glucosamine-6-phosphate [7], the “self-cleavage kobs at 2500 uM GlcN6P” value is 0.000354 ± 6.1e-05 s⁻¹. For the same variant, in the data set with glucosamine-6-phosphate [6], the “self-cleavage kobs at 10000 uM GlcN6P” value was determined as 0.000537 ± 4.9e-05 s⁻¹.
Consider G32A A53U, for which the catalytic constant (kcat) with glucosamine-6-phosphate [1] was found to be 0.00208 ± 0.00084 s⁻¹. Moreover, the “self-cleavage kobs at 40 uM GlcN6P” value with glucosamine-6-phosphate [3] was found to be 3.74e-05 ± 9.9e-06 s⁻¹. For the same variant, the “self-cleavage kobs at 160 uM GlcN6P” value with glucosamine-6-phosphate [4] came out at 0.000175 ± 3.9e-05 s⁻¹. Also, in the data set with glucosamine-6-phosphate [5], the “self-cleavage kobs at 640 uM GlcN6P” value was determined as 0.000595 ± 0.0001 s⁻¹. In addition, in the data set with glucosamine-6-phosphate [7], the “self-cleavage kobs at 2500 uM GlcN6P” value came out at 0.00067 ± 0.00016 s⁻¹. Further, in the data set with glucosamine-6-phosphate [6], the “self-cleavage kobs at 10000 uM GlcN6P” value was 0.00228 ± 0.0003 s⁻¹.
For U30C C58U, the kcat with glucosamine-6-phosphate [1] stood at 3.26e-05 ± 1.4e-05 s⁻¹. Further, the “self-cleavage kobs at 640 uM GlcN6P” value in the data set with glucosamine-6-phosphate [5] is under 1e-05 s⁻¹.
For G66C C71A, in the data set with glucosamine-6-phosphate [1], the turnover number (kcat) amounted to 0.000163 ± 2.2e-05 s⁻¹. For the same variant, the “self-cleavage kobs at 2500 uM GlcN6P” value with glucosamine-6-phosphate [7] is 0.000143 ± 1.5e-05 s⁻¹. Further, the “self-cleavage kobs at 10000 uM GlcN6P” value with glucosamine-6-phosphate [6] is 0.000132 ± 2.2e-05 s⁻¹.
U54G U55A C70G: the catalytic constant (kcat) with glucosamine-6-phosphate [1] came out at 0.000128 ± 1.7e-05 s⁻¹. Moreover, in the data set with glucosamine-6-phosphate [3], the “self-cleavage kobs at 40 uM GlcN6P” value came to 6.4e-05 ± 1.6e-05 s⁻¹. In the data set with glucosamine-6-phosphate [5], the “self-cleavage kobs at 640 uM GlcN6P” value worked out at 0.000102 ± 1.5e-05 s⁻¹. In addition, in the data set with glucosamine-6-phosphate [7], the “self-cleavage kobs at 2500 uM GlcN6P” value stood at 0.000157 ± 2.6e-05 s⁻¹. The “self-cleavage kobs at 10000 uM GlcN6P” value with glucosamine-6-phosphate [6] was determined as 0.000145 ± 2.6e-05 s⁻¹.
